Test results taken from patent US20150086555A1.

What was measured:
Conditions in all cases: remark: other sources report otherwise
[1] = target: T1, recombinant soluble homotrimeric HA of A/Vietnam/1203/04 (H5N1) (Influenza A virus A/VietNam/1203/2004(H5N1)); test: trimeric HA microarray, transfection supernatant set 3
[2] = target: T2, recombinant soluble homotrimeric HA of A/Indonesia/5/05 (H5N1) (Influenza A virus A/Indonesia/5/2005(H5N1)); test: as above
[3] = target: T3, recombinant soluble homotrimeric HA of A/California/4/09 (H1N1) (Influenza A virus A/California/04/2009(H1N1)); test: as above
[4] = target: T4, recombinant soluble homotrimeric HA of A/Solomon Islands/3/06 (H1N1) (Influenza A virus A/Solomon Islands/3/2006(H1N1)); test: as above
[5] = target: T5, recombinant soluble homotrimeric HA of A/Anhui/1/05 (H5N1) (Influenza A virus A/Anhui/1/2005(H5N1)); test: as above
[6] = target: T6, recombinant soluble homotrimeric HA of A/Egypt/3300-NAMRU3/08 (H5N1) (Influenza A virus A/Egypt/3300-NAMRU3/2008(H5N1)); test: as above
[7] = target: T7, recombinant soluble homotrimeric HA of A/Japan/305/57 (H2N2) (Influenza A virus A/Japan/305/1957(H2N2)); test: as above
[8] = target: T8, recombinant soluble homotrimeric HA of A/Netherlands/219/03 (H7N7) (Influenza A virus A/Netherlands/219/03(H7N7)); test: as above
[9] = target: T9, recombinant soluble homotrimeric HA of A/South Carolina/1/18 (H1N1) (Influenza A virus A/South Carolina/1/18 (H1N1)); test: as above
[10] = target: T10, recombinant soluble homotrimeric HA of A/chicken/Vietnam/NCVD-016/08 (H5N1) (Influenza A virus A/chicken/Vietnam/NCVD-016/2008(H5N1)); test: as above
[11] = target: recombinant soluble homotrimeric HA of A/Wisconsin/67/05 (H3N2) (Influenza A virus A/Wisconsin/67/2005(H3N2)); test: trimeric HA microarray, transfection supernatant set 5
[12] = target: recombinant soluble homotrimeric HA, A/swine/Ontario/01911-2/99 H4N6 (Influenza A virus A/Swine/Ontario/01911-2/99 (H4N6)); test: microarray, transfection SN IgG, trimeric HA
[13] = target: T1, recombinant soluble homotrimeric HA of …; test: trimeric HA microarray, transfection supernatant set 4
[14] = target: T2, recombinant soluble homotrimeric HA of …; test: as above
[15] = target: recombinant soluble homotrimeric HA of A/northern shoveler/California/HKWF115/07 (H6) (Influenza A virus A/northern shoveler/California/HKWF115/2007(H6N1)); test: as above
[16] = target: T3, recombinant soluble homotrimeric HA of …; test: as above
[17] = target: T4, recombinant soluble homotrimeric HA of …; test: as above
[18] = target: T5, recombinant soluble homotrimeric HA of …; test: as above
[19] = target: recombinant soluble homotrimeric HA of A/Hong Kong/1073/99 (H9N2) (Influenza A virus A/Hong Kong/1073/99 (H9N2)); test: as above
[20] = target: T6, recombinant soluble homotrimeric HA of …; test: as above
[21] = target: T7, recombinant soluble homotrimeric HA of …; test: as above
[22] = target: T8, recombinant soluble homotrimeric HA of …; test: as above
[23] = target: T9, recombinant soluble homotrimeric HA of …; test: as above
[24] = target: T10, recombinant soluble homotrimeric HA of …; test: as above

B1: TCN-530 (5248_H10a) (antibody, V domains shown)
VH: QVQLVQSGAEVRKPGSSVKVSCKASGGPFMSYAIGWVRQAPGQGLEWMGGINPVFGRPHYAQKFQGRVTIATDDSTKTSYMELSSLTSEDTGMYYCASRYSRSSPGTFESWGQGTLVTVSS
VL: EIVMTQFPATLSVSPGERVTLSCRASQSVSNNLAWYQQKPGQPPRLLIYDASTRATGVPAKFSGTGSGTEFTLSISSLQSEDFAVYYCQQYHNWPPSYSFGLGTKLEIK
B1 showed a Trimeric HA Binding: RLU [1] of 25200 RLU, a Trimeric HA Binding: RLU [2] of 25500 RLU and a Trimeric HA Binding: RLU [3] of 21200 RLU. The Trimeric HA Binding: RLU [4] was 13800 RLU, the Trimeric HA Binding: RLU [5] was 97 RLU and the Trimeric HA Binding: RLU [6] was 25500 RLU. For the same binder, the Trimeric HA Binding: RLU [7] was 5170 RLU, the Trimeric HA Binding: RLU [8] was 118 RLU and the Trimeric HA Binding: RLU [9] was 17200 RLU. The Trimeric HA Binding: RLU [10] was 18000 RLU.

B2: TCN-540 (5060_F05) (antibody, V domains shown)
VH: QVQLVQSGGGVVQPGRSLRLSCAASGFTFSSYAMHWVRQAPGKGLEWVAIISYDGNDQYYTDSVKGRFTISRDSSKVYLQMHRLRPEDTAVYYCAKEFETSGYFHGSFDYWGQGILVTVSS
VL: QSALTQPASVSGSPGQSITISCTGTSSDVGGYNYVSWYQQHPGKAPKLLIYEVTNWPSGVSNRFSGSKSGNTASLTISGLQAEDEADYYCSSYAGSSTWVFGGGTRVTVL
B2 was tested, and the Trimeric HA Binding: RLU [11] was 53000 RLU.

B3: TCN-546 (5089_L08) (antibody, V domains shown)
VH: QVQLQQWGAGLLKPSETLSLTCGVYGGSLSDYYWSWIRQPPGKGLEWIGEINHSGGTNYNPSLKRRVTISVDTSKKQFSLKMNSVTAADTAVYYCARGTDPDTEVYCRAGNCAAFDFWGQGTLVTVSS
VL: EIVLTQSPGTLSLSPGERATLSCRASHFVIGRAVAWYQQKPGQAPRLLIYGASSRATGIPDRFSGSGSGTDFTLTISRLETEDFAVFYCQHYGSSPRYAFGQGTKLEIK
Work on B3 yielded a Trimeric HA Binding: RLU [11] of 28500 RLU.

B4: TCN-543 (5081_G23) (antibody, V domains shown)
VH: QVHLVQSGAEVRKPGDSVKVSCKTSGYTFSTYPVAWVRQVPGQGLEWMGWISTYNGNTNFAQNFQGRVTLTTDTTTNTAYMEVRSLKFDDTAVYYCARVEGSYRDFWNNQNRFDPWGQGTLVTVSS
VL: SYVLTQPPSVSVAPGQTARISCGGSNIGGKSVHWYQQKPGQAPVLVVYDDSGRPSGIPERFSGSNSGDTATLTISRVEAGDEADYFCQVWDNFGGVFGTGTKVTVL
In the case of B4, the Trimeric HA Binding: RLU [11] is reported as 37000 RLU.

B5: TCN-550 (5096_F06) (antibody, V domains shown)
VH: QVQLQESGPGLVKPSETLSLTCTVSGASINSHYWSWIRQPPGKGLEWIGYVYYSGSTTYNPSLKSRVTLSVDTSKNQFSLNLSSVTAADTAFYYCARHPYDVLTGSGDWFDPWGQGTLVTVSS
VL: SYVLTQAPSVSVAPGQTARITCGGNAIGSKKVHWYQHKAGQAPVLVVYDDTDRPSGIPERFSGSNSWSTATLTINRVEAGDEADYYCQVWDFTIDHVVFGGGTKLTVL
With B5 the Trimeric HA Binding: RLU [12] was 1700 RLU.

B6: TCN-539 (5056_A08) (antibody, V domains shown)
VH: QVQLVESGGGVVQPGRSLRLSCAASEITFITYAMHWVRQAPGKGLEWVALISDDGSNKFYADSVKGRFTISRDNSKNTLYLQMNSLRAEDTAAYYCAREGVYFDSGTYRGYFDYWGQETLVTVSS
VL: EIVLTQSPATLSLSPGERATLSCRASQSVSSYLAWYQQKPGQAPRLLIYDASNRATGIPARFSGSGSGTDFTLTISSLEPEDFAVYYCQQRSHWPPITFGQGTRLEIK
Work on B6 yielded a Trimeric HA Binding: RLU [11] of 58800 RLU.

B7: TCN-553 (5261_C18) (antibody, V domains shown)
VH: QVQVVQSGTEVKKPGSSVKVSCQTSGGRFMSYAITWVRQAPGQGLEWMGGIVPVFGTANYAQKFQGRVTITTDDSTRTAYMELSSLRSEDTAVYYCGFRYGSGYGFDSWGQGTLVTVSS
VL: EIVLTQSPGTLSLSPGERATLSCRASQSVSSSYLAWYQKKPGQAPRLLIYGASTRATGIPDRFTGSGSGTDFTLSISRLEPEDFAVYYCQHFGTSVFTFGGGTKVEIK
In the case of B7, the Trimeric HA Binding: RLU [12] is reported as 12200 RLU.

B8: TCN-523 (5248_A17) (antibody, V domains shown)
VH: QVQLVQSGAEVKKPGSSVKVSCKASGGSFSNYAFSWVRQAPGQGLEWMGGTIPLLGTTNYAQKFQGRVTISADQFTSTAYMELGSLRSEDTAVYYCTRRKMTTAFDSWGQGTLVTVSS
VL: QPVLTQPPSASASLGASVTLTCTLSSAYSNYKVDWYQQRPGKGPRFVMRVGTGGIVGSKGDGIPDRFSVLGSGLNRYLTIKNIQEEDESDYHCGADHGSGSNFVSPYVFGGGTKLTVL
Work on B8 yielded a Trimeric HA Binding: RLU [1] of 22100 RLU, a Trimeric HA Binding: RLU [2] of 22000 RLU and a Trimeric HA Binding: RLU [3] of 19400 RLU. For the same binder, the Trimeric HA Binding: RLU [4] was 11000 RLU, the Trimeric HA Binding: RLU [5] was 546 RLU and the Trimeric HA Binding: RLU [6] was 29100 RLU. The Trimeric HA Binding: RLU [7] was 4550 RLU, the Trimeric HA Binding: RLU [8] was 3140 RLU and the Trimeric HA Binding: RLU [9] was 23700 RLU. For the same binder, the Trimeric HA Binding: RLU [10] was 18900 RLU, the Trimeric HA Binding: RLU [13] was 30900 RLU and the Trimeric HA Binding: RLU [14] was 24500 RLU. It also gave a Trimeric HA Binding: RLU [15] of 25100 RLU, a Trimeric HA Binding: RLU [16] of 28800 RLU and a Trimeric HA Binding: RLU [17] of 371 RLU. For the same binder, the Trimeric HA Binding: RLU [18] was 48 RLU, the Trimeric HA Binding: RLU [19] was 24600 RLU and the Trimeric HA Binding: RLU [20] was 33400 RLU. The Trimeric HA Binding: RLU [21] was 3840 RLU, the Trimeric HA Binding: RLU [22] was 443 RLU and the Trimeric HA Binding: RLU [23] was 23000 RLU. It also gave a Trimeric HA Binding: RLU [24] of 24000 RLU.

B9: TCN-557 (5081_A04) (antibody, V domains shown)
VH: QVQLVQSGAEVKKPGASVKVSCKASGHTFTGYYIHWVRQAPGQGLEWMGWINPDSGATSSAQNFQGRVTMTGDTSSSTAYMELSRLSFDDTAVYYCARVLFTSPFDFWGEGTLVTVSS
VL: QAVVTQEPSLAVSPGGTVTLTCGSSTGAVTRGHYPYWFQQKPGQAPRALIYDSAGNRHSWTPARFSGSLLGGKAALTLSGAQPEDEAEYYCLLSYSGVWVFGGGTKLTVL
B9 gave a Trimeric HA Binding: RLU [12] of 41500 RLU.

B10: TCN-552 (5249_I23) (antibody, V domains shown)
VH: QVQVVQSGAEVKKPGSSVRVSCQASGGTFMNYAIIWVRRAPGQGLEWMGGIIPVFPTPNYAQMFQGRVTISTDESRSTSFLELTNLRYEDTAVYYCARRIYHGGNSGFDFWGQGTLVTVSS
VL: EIVLTQSPATLSLSPGERATLSCRASQSVGNYLAWYQQKPGQAPRLLIYDSSNRAPGIPARFSGSGSGTDFTLTISSLAPEDFAVYYCQQRSKWPPMYSFGHGTKLEIK
For B10, the Trimeric HA Binding: RLU [12] was 9080 RLU.
